Article PMC7927982

These binders were tested against T1, LARP1 La-Module (Homo sapiens, UniProt Q6PKG0-3 310-540) (assay: EMSA).
CCUUUUCCAAGCGGCUGCCGAAG (ssRNA) [RPL13A 5'UTR]: binds.
CCUCUUUUCCGUGGCGCCUCGGAGGCGUUCAGCUGCUUCAAG (ssRNA) [RPS6 5'UTR]: binds.
CUCUCUUCCACAGGAGGCCUACACGCCGCCGCUUGUGCUGCAGCC (ssRNA) [RPS18 5'UTR]: no binding.
AAGAUUUUUUGAGUAACAAAU (ssRNA) [RPS6 3'UTR]: no binding.
GUGGCGCCUCGGAGGCGUUCAGCUGCUUCAAG (ssRNA) [RPS6 5'UTR delTOP]: no binding.
AAGCGGCUGCCGAAG (ssRNA) [RPL13A 5'UTR delTOP]: no binding.
CCUUCUCCCCGGCGGUUAGUGCUGAGAGUGCGGAGUGUGUG (ssRNA) [PABPC1 42-mer]: no binding.

The binders below were run against T1, LARP1 La-Module (assay: competition).
GGGGGGGGGGGGGGGGGGG (ssRNA) [poly(G) 19-mer]: binds.

Target: T1, LARP1 La-Module
Assay: EMSA
Remark: another data set of the same source
Binder AAAAAAAAAAAAAAAAAAAAAAAAA (ssRNA) [poly(A) 25-mer] has a Kd of 40 ± 1 nM.
